From PMC9317851, “Genomic Characterization of Bacillus safensis Isolated from Mine Tailings in Peru and Evaluation of Its Cyanide-Degrading Enzyme CynD” (Applied and Environmental Microbiology, 2022)

Legend:
[1] = molecular target: the molecule itself; experiment: SEC-MALS; pH 8; 100 mM NaCl, 20 mM Tris-HCl; 100-μL injection of 3.47 mg/mL (89.36 μM) CynD; Superdex 200 increase 10/300 GL; size of the oligomers
[2] = molecular target: the molecule itself; experiment: SEC-MALS; pH 10; 100 mM NaCl, 20 mM CAPS; 100-μL injection of 3.47 mg/mL (89.36 μM) CynD; Superdex 200 increase 10/300 GL; size of the oligomers
[3] = molecular target: the molecule itself; experiment: SEC-MALS; pH 9; 100 mM NaCl, 20 mM Tris-HCl; 100-μL injection of 3.47 mg/mL (89.36 μM) CynD; Superdex 200 increase 10/300 GL; size of the oligomers

B1: Cyanide dihydratase CynD from Bacillus safensis PER-URP-08 (CynD_(PER-URP-08)), recombinant with C-terminal 6xHis tag (enzyme, UniProt P0DXY3 1-330, looked up)
chain: MTSIYPKFRAAAVQAAPVYLNLEATVEKSCELIDEAASNGAKLVAFPEAFLPGYPWFAFIGHPEYTRKFYHELYKNAVEIPSLAIQKISEAAKRNETYVCISCSEKDGGSLYLAQLWFNPNGDLIGKHRKMRASVAERLIWGDGSGSMMPVFQTDIGNLGGLMCWEHQVPLDLMAMNAQNEQVHVASWPGYFDDEISSRYYAIATQTFVLMTSSIYTEEMKEMICLTQEQRDYFETFKSGHTCIYGPDGEPISDMVPAETEGIAYAEIDVERVIDYKYYIDPAGHYSNQSLSMNFNQQPTPVVKQLYHQKNEVFTYEDIQYQHGILEEKV
notes: Cyanide dihydratase CynD of Bacillus safensis PER-URP-08, locus EGI07_08135; monomer 38.5 kDa; The forward primer carries the NdeI site CATATG followed by a further atg, so an added N-terminal Met may be present; also called recombinant CynD; EGI07_08135; source: E. coli BL21(DE3)/pLysS, purified (Ni-NTA, size exclusion chromatography); not shown: 6xHis, C-terminal, kept
- stoichiometry N [1]: 24 to 48 mer
- stoichiometry N [2]: 3 to 5 mer
- stoichiometry N [3]: 4 to 6 mer
